Blank lines part the entries; values can stand above or below the binder they belong to.
Experiments:
[1] = biological target: T1, Human IL-23 (human, UniProt Q9NPF7 20-189; P29460 23-328); assay: cell-based or functional assay
T1 sequence 1: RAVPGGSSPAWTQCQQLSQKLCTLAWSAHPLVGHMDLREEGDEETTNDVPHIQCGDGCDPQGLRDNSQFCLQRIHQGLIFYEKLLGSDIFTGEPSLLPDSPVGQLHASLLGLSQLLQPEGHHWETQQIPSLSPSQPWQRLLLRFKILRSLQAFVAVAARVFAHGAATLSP
T1 sequence 2: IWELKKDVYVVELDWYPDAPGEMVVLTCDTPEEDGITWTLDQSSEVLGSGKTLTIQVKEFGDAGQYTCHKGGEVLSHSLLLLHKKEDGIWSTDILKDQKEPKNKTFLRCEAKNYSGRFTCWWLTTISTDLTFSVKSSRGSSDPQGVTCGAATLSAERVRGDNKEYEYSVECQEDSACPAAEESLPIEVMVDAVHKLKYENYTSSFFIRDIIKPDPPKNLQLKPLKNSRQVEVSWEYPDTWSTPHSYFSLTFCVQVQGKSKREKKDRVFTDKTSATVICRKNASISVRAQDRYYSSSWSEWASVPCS

[2] = biological target: T1, Human IL-23; assay: cell-based or functional assay; remark: listed apart in the source
[3] = biological target: T2, Human IL-18 (human, UniProt Q14116 37-193); assay: SPR (Biacore), antibody captured on Protein A/G, cytokine as analyte, 25 C
T2 construct: Recombinant, made in-house; In the BLI assay the loaded cytokine was captured on anti-Penta His sensors, so a His tag is implied but not described; also called recombinant human IL-18; interleukin 18
T2 sequence: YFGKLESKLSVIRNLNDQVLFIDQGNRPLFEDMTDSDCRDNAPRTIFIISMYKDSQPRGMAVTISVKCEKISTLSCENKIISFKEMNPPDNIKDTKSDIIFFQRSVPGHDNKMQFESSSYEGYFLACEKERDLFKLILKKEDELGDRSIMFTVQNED
Method: (§1) A heterodimeric bsAb, alongside anti-IL-18 and anti-IL-23 common light chain control bispecific antibodies, were assessed for binding to human and cyno IL-18 and IL-23, using the Biacore 8K and T200 (Cytiva) surface plasmon resonance (SPR) instruments. All reagents were generated recombinantly in-house with the exception of Rhesus monkey IL-18 which was purchased from R&D systems (Cat #2548-RM-025/CF). Rhesus and cynomolgus monkey amino acid sequences are identical. Therefore, the protein will be referred to as cynomolgus monkey IL-18.
(§2) Heterodimeric bsAb, anti-IL-18 and anti-IL-23 common light chain bispecific control molecules were assessed for binding to recombinant human and cynomolgus monkey IL-18 and IL-23 using the Biacore 8K and T200 (Cytiva) SPR instruments. The antibodies were captured onto Protein A/G, which was immobilised onto flow cell 2 of 8 channels (Biacore 8K) or flow cells 2, 3 and 4 (Biacore T200) of a CM5 series S sensor chip by primary amine coupling. The IL-18 or IL-23 analytes were passed over the captured antibodies at varying concentrations between 0.04-25 nM. The association phase was for 240 seconds at 30 μl/min, followed by a dissociation step of up to 1200 seconds. A 0 nM (i.e., buffer alone) injection was used to double reference the binding curves. Regeneration of the chip surface between cycles was carried out using 50 mM NaOH. The assay was run at 25° C. in HBS-EP⁺ buffer. Biacore 8K control software version 3.0 was used to run the experiment. Data was analysed using Biacore 8K Insight evaluation software version 3.0. Biacore T200 control software version 1.0 was used to run the experiment. Data was analysed using Biacore T200 evaluation software version 2.0. Affinities and kinetics were determined using the 1:1 kinetic fit inherent to the software where possible. All affinity values generated using both instruments were combined to determine geometric mean values.

[4] = biological target: T1, Human IL-23; assay: SPR (Biacore), antibody captured on Protein A/G, cytokine as analyte, 25 C, 1:1 fit, n=1
Method: as §1, §2

[5] = biological target: T2, Human IL-18; assay: cell-based or functional assay
[6] = biological target: T2, Human IL-18; assay: cell-based or functional assay; remark: listed apart in the source
[7] = biological target: T2, Human IL-18; assay: SPR (Biacore), antibody captured on Protein A/G, cytokine as analyte, 25 C, 1:1 fit, n=1
Method: as §1, §2

[8] = biological target: T3, Human recombinant IL-12 (human, UniProt P29459 23-219); assay: cell-based or functional assay
T3 sequence 1: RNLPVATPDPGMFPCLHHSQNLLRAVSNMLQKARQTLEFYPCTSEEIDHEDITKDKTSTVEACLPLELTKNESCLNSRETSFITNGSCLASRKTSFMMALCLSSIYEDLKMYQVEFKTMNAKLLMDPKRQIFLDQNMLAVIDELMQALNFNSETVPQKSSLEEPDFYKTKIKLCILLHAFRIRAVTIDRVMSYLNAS
T3 sequence 2: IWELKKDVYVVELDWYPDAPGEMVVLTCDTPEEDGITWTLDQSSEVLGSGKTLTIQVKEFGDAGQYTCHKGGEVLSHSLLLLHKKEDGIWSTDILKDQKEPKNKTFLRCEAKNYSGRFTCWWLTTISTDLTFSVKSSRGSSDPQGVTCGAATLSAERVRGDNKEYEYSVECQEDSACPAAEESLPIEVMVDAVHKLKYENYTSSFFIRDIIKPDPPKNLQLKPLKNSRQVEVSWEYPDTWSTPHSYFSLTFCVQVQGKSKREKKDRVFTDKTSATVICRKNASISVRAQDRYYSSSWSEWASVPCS

B1: IL-23 control 3 (antibody, V domains shown)
VH: QVQLVQSGAEVKKPGASVKVSCKASGYIFITYWMTWVRQAPGQGLEWMGQIFPASGSADYNEKFEGRVTMTTDTSTSTAYMELRSLRSDDTAVYYCARGGGGFAYWGQGTLVTVSS
VL: DIQMTQSPSSLSASVGDRVTITCRTSENIYSYLAWYQQKPGKAPKLLIYNAKTLAEGVPSRFSGSGSGTDFTLTISSLQPEDFATYYCQHHYGIPFTFGQGTKVEIK
notes: Anti-IL-23 (tildrakizumab) plus Het-mAb Fc mutations of Heterodimeric bsAbs 1-4 and half-life extending (YTE) mutations; also called tildrakizumab variable domains
- IC50 Parent (pM), inhibition of IL-23-induced pSTAT3 in T cells of human whole blood (run with Heterodimeric bsAb-3) [1]: 637 pM
- IC50 Parent (pM), inhibition of human IL-23-induced mouse IL-17A secretion in mouse splenocytes (run with Heterodimeric bsAb-3) [2]: 687 pM
- binding result [3]: no binding (tested: 0.04-25 nM analyte)
- Kd [4]: 576 pM

B4: Ustekinumab (antibody, V domains shown)
VH: EVQLVQSGAEVKKPGESLKISCKGSGYSFTTYWLGWVRQMPGKGLDWIGIMSPVDSDIRYSPSFQGQVTMSVDKSITTAYLQWNSLKASDTAMYYCARRRPGQGYFDFWGQGTLVTVSS
VL: DIQMTQSPSSLSASVGDRVTITCRASQGISSWLAWYQQKPEKAPKSLIYAASSLQSGVPSRFSGSGSGTDFTLTISSLQPEDFATYYCQQYNIYPYTFGQGTKLEIK
- IC50 (pM), inhibition of IL-12-induced IFNγ secretion by NK-92 cells [8]: 875 pM
- IC50 (ug/mL), inhibition of IL-12-induced IFNγ secretion by NK-92 cells [8]: 0.13 µg/mL

Continued, values first:

- pIC50 (GeoMean), neutralisation of human IL-18-induced IFNγ secretion by KG-1 cells [5]: < 8.48
- IC50 Parent (pM), inhibition of IL-23-induced pSTAT3 in T cells of human whole blood (run with Heterodimeric bsAb-1) [1]: 282 pM
- IC50 Parent (pM), inhibition of IL-23-induced pSTAT3 in T cells of human whole blood (run with Heterodimeric bsAb-2) [1]: 286 pM
- IC50 Parent (pM), inhibition of human IL-23-induced mouse IL-17A secretion in mouse splenocytes (run with Heterodimeric bsAb-1) [2]: 60 pM
- IC50 Parent (pM), inhibition of human IL-23-induced mouse IL-17A secretion in mouse splenocytes (run with Heterodimeric bsAb-2) [2]: 53.3 pM
- binding result [3]: no binding (tested: 0.04-25 nM analyte)
- Kd [4]: 163 pM
B2: IL-23 control 2 (antibody, V domains shown)
VH: QVQLVQSGAEVKKPGSSVKVSCKASGYTFTDQTIHWMRQAPGQGLEWIGYIYPRDDSPKYNENFKGKVTITADKSTSTAYMELSSLRSEDTAVYYCAIPDRSGYAWFIYWGQGTLVTVSS
VL: DIQMTQSPSSLSASVGDRVTITCKASRDVAIAVAWYQQKPGKVPKLLIYWASTRHTGVPSRFSGSGSRTDFTLTISSLQPEDVADYFCHQYSSYPFTFGSGTKLEIK
notes: Anti-IL-23 (risankizumab) mAb plus Het-mAb Fc mutations of Heterodimeric bsAbs 1-4 and silencing (LAGA) mutations; also called risankizumab variable domains

- IC50 (pM, Mean), neutralisation of human IL-18-induced IFNγ secretion by KG-1 cells [5]: 105 pM
- pIC50 (GeoMean), neutralisation of human IL-18-induced IFNγ secretion by KG-1 cells [5]: 9.98
- IC50 Heterodimeric bsAbs (% of Parent IL-18 control 3), LPS + IL12-induced IFN-γ in human whole blood [6]: 280 % of Parent
- IC50 Heterodimeric bsAbs (nM), inhibition of LPS + IL12-induced IFN-γ in human whole blood [6]: 21.7 nM
- IC50 Heterodimeric bsAbs (% of Parent IL-23 control 3), IL-23-induced pSTAT3 in T cells of human whole blood [1]: 100 % of Parent
- IC50 Heterodimeric bsAbs (pM), inhibition of IL-23-induced pSTAT3 in CD3+CD161+ T cells of human whole blood [1]: 640 pM
- IC50 Heterodimeric bsAb (% of Parent IL-23 control 3), IL-23-induced mouse IL-17A in mouse splenocytes [2]: 387 % of Parent
- IC50 Heterodimeric bsAb (pM), inhibition of human IL-23-induced mouse IL-17A secretion in mouse splenocytes [2]: 2670 pM
- Kd [7]: < 10 pM
- Kd [4]: 499 pM
B3: Heterodimeric bsAb 3 (bispecific antibody, human IgG1, kappa)
heavy 1: QVQLVQSGAEVKKPGASVKVSCKVSGEISTGYYFHWVRQAPGKGLEWMGRIDPEDDSTKYAERFKDRVTMTEDTSTDTAYMELSSLRSEDTAVYYCTTWRIYRDSSGRPFYVMDAWGQGTLVTVSSASTKGPSVFPLAPSSKSTSGGTAALGCEVTDYFPEPVTVSWNSGALTSGVHTFPAVLESSGLYSLSSVVTVPSSSLGTQTYICNVNHKPSNTKVDKKVEPKSCDKTHTCPPCPAPELAGAPSVFLFPPKPKDTLMISRTPEVTCVVVDVSHEDPEVKFNWYVDGVEVHNAKTKPREEQYNSTYRVVSVLTVLHQDWLNGKEYKCKVSNKALPAPIEKTISKAKGQPREPQVYVYPPSRDELTKNQVSLTCLVKGFYPSDIAVEWESNGQPENNYKTTPPVLDSDGSFALVSKLTVDKSRWQQGNVFSCSVMHEALHNHYTQKSLSLSPGK
light 1: DIQMTQSPSSVSASVGDRVTITCLASEDIYTYLTWYQQKPGKAPKLLIYGANKLQDGVPSRFSGSGSGTDYTLTISSLQPEDFATYYCLQGSKFPLTFGQGTKLEIKRTVAAPSVFIFPPSDERLKSGTASVVCLLNNFYPREAKVQWKVDNALQSGNSQESVTEQDSKDSTYSLSSRLTLSKADYEKHKVYACEVTHQGLSSPVTKSFNRGEC
heavy 2: QVQLVQSGAEVKKPGASVKVSCKASGYIFITYWMTWVRQAPGQGLEWMGQIFPASGSADYNEKFEGRVTMTTDTSTSTAYMELRSLRSDDTAVYYCARGGGGFAYWGQGTLVTVSSASTKGPSVFPLAPSSKSTSGGTAALGCRVKDYFPEPVTVSWNSGALTSGVHTFPAVLQSSGLYSLSSVVTVPSSSLGTQTYICNVNHKPSNTKVDKKVEPKSCDKTHTCPPCPAPELAGAPSVFLFPPKPKDTLMISRTPEVTCVVVDVSHEDPEVKFNWYVDGVEVHNAKTKPREEQYNSTYRVVSVLTVLHQDWLNGKEYKCKVSNKALPAPIEKTISKAKGQPREPQVYVLPPSRDELTKNQVSLLCLVKGFYPSDIAVEWESNGQPENNYLTWPPVLDSDGSFFLYSKLTVDKSRWQQGNVFSCSVMHEALHNHYTQKSLSLSPGK
light 2: DIQMTQSPSSLSASVGDRVTITCRTSENIYSYLAWYQQKPGKAPKLLIYNAKTLAEGVPSRFSGSGSGTDFTLTISSLQPEDFATYYCQHHYGIPFTFGQGTKVEIKRTVAAPSVFIFPPSDEELKSGTASVECLLNNFYPREAKVQWKVDNALQSGNSQESVTEQDSKDSTYSLSSTLTLSKADYEKHKVYACEVTHQGLSSPVTKSFNRGEC
notes: Het-mAb format: anti-IL-18 mAb on ZA and anti-IL-23 mAb (tildrakizumab) on ZB, with Fc heterodimerisation and silencing mutations

— US20260226152A1 (GlaxoSmithKline, published 2026)
